The subject of this data set is Escherichia coli TOP10. Description: shrunken log2 fold change of peptide-encoding DNA abundance (4.5 h post-induction vs induction); higher = less antimicrobial activity (less host growth inhibition). The conditions noted are these: time post-induction: 4.5 h; library: site-saturation at positions 5, 18, 19, 20.
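Further: peptides expressed intracellularly from a pBAD plasmid library in pooled LB shake-flask culture, induced with 0.3% L-arabinose, DNA abundance read by NGS, three biological replicates, DESeq2 with apeglm shrinkage.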

Take RRIRDRPPRLPRPRPRPMTPPRP: the “shrunken log2 fold change” value is -0.0805.

As for RRIRWRPPRLPRPRPRPSPPPRP, the “shrunken log2 fold change” value was 0.423.

Regarding RRIRFRPPRLPRPRPRPHDCPRP, the “shrunken log2 fold change” value is -0.0297.

With RRIRCRPPRLPRPRPRPVDPPRP, the “shrunken log2 fold change” value is 0.227.

RRIRCRPPRLPRPRPRPVSDPRP: the “shrunken log2 fold change” value was determined as 0.0185.

For the sequence RRIRTRPPRLPRPRPRPHLLPRP, the “shrunken log2 fold change” value is -0.411.

For the sequence RRIRARPPRLPRPRPRPVLHPRP, the “shrunken log2 fold change” value is 0.288.

For the sequence RRIRGRPPRLPRPRPRPAIRPRP, the “shrunken log2 fold change” value was 0.768.

Turning to RRIRSRPPRLPRPRPRPNQGPRP, the “shrunken log2 fold change” value stood at 0.153.

Take RRIRKRPPRLPRPRPRPSTFPRP: the “shrunken log2 fold change” value was -0.00863.

As to RRIRRRPPRLPRPRPRPQISPRP, the “shrunken log2 fold change” value is -0.0603.

Turning to RRIRNRPPRLPRPRPRPGRQPRP, the “shrunken log2 fold change” value is 0.0171.

For the sequence RRIRGRPPRLPRPRPRPGMEPRP, the “shrunken log2 fold change” value came to 1.54.

On to RRIRARPPRLPRPRPRPMMYPRP, for which the “shrunken log2 fold change” value is -0.134.

As for RRIRNRPPRLPRPRPRPGIGPRP, the “shrunken log2 fold change” value worked out at 0.239.

Take RRIRKRPPRLPRPRPRPQTDPRP: the “shrunken log2 fold change” value is -0.00442.

With RRIRQRPPRLPRPRPRPFAFPRP, the “shrunken log2 fold change” value is 0.087.

On to RRIRLRPPRLPRPRPRPLCVPRP, for which the “shrunken log2 fold change” value was found to be 0.688.

For RRIRIRPPRLPRPRPRPFYWPRP, the “shrunken log2 fold change” value was -0.12.

Regarding RRIRIRPPRLPRPRPRPMDWPRP, the “shrunken log2 fold change” value amounted to 0.0118.

With RRIRGRPPRLPRPRPRPPHMPRP, the “shrunken log2 fold change” value is 0.489.

In the case of RRIRYRPPRLPRPRPRPARAPRP, the “shrunken log2 fold change” value was found to be 0.524.

With RRIRPRPPRLPRPRPRPRSWPRP, the “shrunken log2 fold change” value is 0.533.

For the sequence RRIRCRPPRLPRPRPRPCFWPRP, the “shrunken log2 fold change” value amounted to 0.216.

As to RRIRVRPPRLPRPRPRPQDPPRP, the “shrunken log2 fold change” value is 0.0381.

For RRIRERPPRLPRPRPRPTTGPRP, the “shrunken log2 fold change” value is -0.0235.

For RRIRFRPPRLPRPRPRPIWFPRP, the “shrunken log2 fold change” value was -0.129.

Consider RRIRMRPPRLPRPRPRPYHCPRP, for which the “shrunken log2 fold change” value was -0.72.

On to RRIRERPPRLPRPRPRPGLAPRP, for which the “shrunken log2 fold change” value worked out at 0.178.

Regarding RRIRKRPPRLPRPRPRPCGHPRP, the “shrunken log2 fold change” value turned out to be 0.0693.

Turning to RRIRERPPRLPRPRPRPDNVPRP, the “shrunken log2 fold change” value is 0.0262.

Regarding RRIRMRPPRLPRPRPRPLSNPRP, the “shrunken log2 fold change” value is -0.0789.

RRIRWRPPRLPRPRPRPSSRPRP: the “shrunken log2 fold change” value stood at 0.188.

RRIRRRPPRLPRPRPRPDSSPRP: the “shrunken log2 fold change” value is -0.118.

RRIRTRPPRLPRPRPRPCGEPRP: the “shrunken log2 fold change” value was -0.23.

Take RRIRMRPPRLPRPRPRPDEMPRP: the “shrunken log2 fold change” value turned out to be 0.0155.

For the sequence RRIRTRPPRLPRPRPRPIHAPRP, the “shrunken log2 fold change” value is -0.0176.

As for RRIRNRPPRLPRPRPRPWVGPRP, the “shrunken log2 fold change” value was -0.065.

In the case of RRIRLRPPRLPRPRPRPTKLPRP, the “shrunken log2 fold change” value was -0.0137.

In the case of RRIRERPPRLPRPRPRPRVCPRP, the “shrunken log2 fold change” value is 0.0408.

With RRIRLRPPRLPRPRPRPEWLPRP, the “shrunken log2 fold change” value was found to be 0.315.

Consider RRIRDRPPRLPRPRPRPPQFPRP, for which the “shrunken log2 fold change” value was -0.15.

On to RRIRARPPRLPRPRPRPWWNPRP, for which the “shrunken log2 fold change” value was -0.108.

In the case of RRIRCRPPRLPRPRPRPMGTPRP, the “shrunken log2 fold change” value is -0.159.

On to RRIRVRPPRLPRPRPRPAKHPRP, for which the “shrunken log2 fold change” value was -0.169.

Consider RRIRDRPPRLPRPRPRPPTFPRP, for which the “shrunken log2 fold change” value was -0.158.

Regarding RRIRARPPRLPRPRPRPTSGPRP, the “shrunken log2 fold change” value worked out at 0.343.

Take RRIRHRPPRLPRPRPRPVIGPRP: the “shrunken log2 fold change” value is -0.0297.

Consider RRIRQRPPRLPRPRPRPRTAPRP, for which the “shrunken log2 fold change” value turned out to be 0.0467.

Take RRIRVRPPRLPRPRPRPRGAPRP: the “shrunken log2 fold change” value worked out at 0.567.

For the sequence RRIRKRPPRLPRPRPRPWGRPRP, the “shrunken log2 fold change” value worked out at 0.179.

RRIRHRPPRLPRPRPRPNSIPRP: the “shrunken log2 fold change” value is -0.0178.

In the case of RRIRYRPPRLPRPRPRPEVLPRP, the “shrunken log2 fold change” value was -0.00228.

As to RRIRSRPPRLPRPRPRPEEPPRP, the “shrunken log2 fold change” value came to 0.729.

Take RRIRMRPPRLPRPRPRPIAFPRP: the “shrunken log2 fold change” value is -0.0147.

Take RRIRIRPPRLPRPRPRPFNEPRP: the “shrunken log2 fold change” value was -0.331.

For the sequence RRIRFRPPRLPRPRPRPQLIPRP, the “shrunken log2 fold change” value was -0.313.

Take RRIRNRPPRLPRPRPRPDLTPRP: the “shrunken log2 fold change” value was -0.112.

RRIRNRPPRLPRPRPRPCGVPRP: the “shrunken log2 fold change” value was -0.00664.

With RRIRARPPRLPRPRPRPNCAPRP, the “shrunken log2 fold change” value was determined as 0.567.

As for RRIRARPPRLPRPRPRPTVKPRP, the “shrunken log2 fold change” value stood at 0.143.

Regarding RRIRCRPPRLPRPRPRPLPPPRP, the “shrunken log2 fold change” value was determined as 0.733.

As for RRIRARPPRLPRPRPRPVVNPRP, the “shrunken log2 fold change” value was 0.346.

Regarding RRIRTRPPRLPRPRPRPCYVPRP, the “shrunken log2 fold change” value was -0.89.

Turning to RRIRIRPPRLPRPRPRPDKVPRP, the “shrunken log2 fold change” value is -0.043.

On to RRIRERPPRLPRPRPRPGIMPRP, for which the “shrunken log2 fold change” value was -0.738.

In the case of RRIRERPPRLPRPRPRPMGEPRP, the “shrunken log2 fold change” value is -0.00192.

Regarding RRIRVRPPRLPRPRPRPWVHPRP, the “shrunken log2 fold change” value is -0.306.

Take RRIRFRPPRLPRPRPRPVYVPRP: the “shrunken log2 fold change” value is -0.93.

Regarding RRIRRRPPRLPRPRPRPRCWPRP, the “shrunken log2 fold change” value worked out at 0.486.

For RRIRGRPPRLPRPRPRPIVMPRP, the “shrunken log2 fold change” value is -0.0978.

On to RRIRHRPPRLPRPRPRPIIVPRP, for which the “shrunken log2 fold change” value was -0.0935.

For RRIRTRPPRLPRPRPRPDDAPRP, the “shrunken log2 fold change” value was -0.0135.

As for RRIRGRPPRLPRPRPRPCCPPRP, the “shrunken log2 fold change” value is 0.0328.

In the case of RRIRDRPPRLPRPRPRPDFIPRP, the “shrunken log2 fold change” value is 0.0951.

As for RRIRPRPPRLPRPRPRPRIAPRP, the “shrunken log2 fold change” value came out at 0.451.

In the case of RRIRMRPPRLPRPRPRPSSGPRP, the “shrunken log2 fold change” value worked out at 0.0493.

In the case of RRIRRRPPRLPRPRPRPMFGPRP, the “shrunken log2 fold change” value was -0.0512.

For RRIRERPPRLPRPRPRPDGMPRP, the “shrunken log2 fold change” value was -0.0237.

With RRIRRRPPRLPRPRPRPRQPPRP, the “shrunken log2 fold change” value is 0.997.

With RRIRSRPPRLPRPRPRPAVAPRP, the “shrunken log2 fold change” value was determined as 0.0474.

With RRIRERPPRLPRPRPRPYPWPRP, the “shrunken log2 fold change” value is -0.706.

RRIRKRPPRLPRPRPRPNVAPRP: the “shrunken log2 fold change” value is 0.387.

Consider RRIRFRPPRLPRPRPRPLYIPRP, for which the “shrunken log2 fold change” value was -0.63.

For RRIRGRPPRLPRPRPRPRYFPRP, the “shrunken log2 fold change” value is -0.0468.

For the sequence RRIRGRPPRLPRPRPRPDRYPRP, the “shrunken log2 fold change” value was 0.152.

In the case of RRIRSRPPRLPRPRPRPILLPRP, the “shrunken log2 fold change” value is -0.334.

Consider RRIRCRPPRLPRPRPRPVWLPRP, for which the “shrunken log2 fold change” value came to 0.0721.

Consider RRIRERPPRLPRPRPRPQPWPRP, for which the “shrunken log2 fold change” value was -0.0127.

In the case of RRIRQRPPRLPRPRPRPRIRPRP, the “shrunken log2 fold change” value is 0.024.

Take RRIRHRPPRLPRPRPRPSTNPRP: the “shrunken log2 fold change” value was -0.275.

Turning to RRIRLRPPRLPRPRPRPRGLPRP, the “shrunken log2 fold change” value turned out to be 0.146.

For the sequence RRIRPRPPRLPRPRPRPYICPRP, the “shrunken log2 fold change” value is -0.149.

On to RRIRERPPRLPRPRPRPLWLPRP, for which the “shrunken log2 fold change” value is -0.203.

RRIRSRPPRLPRPRPRPGAYPRP: the “shrunken log2 fold change” value was -0.0377.

Turning to RRIRMRPPRLPRPRPRPRQAPRP, the “shrunken log2 fold change” value amounted to 0.013.

As for RRIRSRPPRLPRPRPRPNWMPRP, the “shrunken log2 fold change” value is -0.0249.

In the case of RRIRRRPPRLPRPRPRPFLYPRP, the “shrunken log2 fold change” value worked out at 0.0538.

With RRIRGRPPRLPRPRPRPNYCPRP, the “shrunken log2 fold change” value was 0.00136.

For the sequence RRIRTRPPRLPRPRPRPIPQPRP, the “shrunken log2 fold change” value amounted to 0.284.

As to RRIRTRPPRLPRPRPRPCNKPRP, the “shrunken log2 fold change” value is -0.121.

As to RRIRDRPPRLPRPRPRPVLTPRP, the “shrunken log2 fold change” value was 0.31.

As for RRIRMRPPRLPRPRPRPVLYPRP, the “shrunken log2 fold change” value was -0.0553.

Turning to RRIRIRPPRLPRPRPRPGHCPRP, the “shrunken log2 fold change” value was -0.247.

With RRIRDRPPRLPRPRPRPAKNPRP, the “shrunken log2 fold change” value was -0.119.

With RRIRVRPPRLPRPRPRPHVFPRP, the “shrunken log2 fold change” value is -0.0624.

For the sequence RRIRKRPPRLPRPRPRPIAKPRP, the “shrunken log2 fold change” value was found to be 0.141.

For the sequence RRIRWRPPRLPRPRPRPPMQPRP, the “shrunken log2 fold change” value was found to be 0.322.

Consider RRIRDRPPRLPRPRPRPAQCPRP, for which the “shrunken log2 fold change” value was determined as 0.0665.

RRIRVRPPRLPRPRPRPLKDPRP: the “shrunken log2 fold change” value was -0.242.

Take RRIRPRPPRLPRPRPRPRLTPRP: the “shrunken log2 fold change” value came out at 0.293.

For the sequence RRIRARPPRLPRPRPRPCKTPRP, the “shrunken log2 fold change” value was determined as 0.107.

For RRIRQRPPRLPRPRPRPTDLPRP, the “shrunken log2 fold change” value is 0.0327.

For RRIRNRPPRLPRPRPRPKSWPRP, the “shrunken log2 fold change” value worked out at 0.432.

On to RRIRNRPPRLPRPRPRPPMTPRP, for which the “shrunken log2 fold change” value stood at 1.77.

For the sequence RRIRERPPRLPRPRPRPCHRPRP, the “shrunken log2 fold change” value was -0.02.

In the case of RRIRSRPPRLPRPRPRPHWVPRP, the “shrunken log2 fold change” value was -0.166.

For RRIRNRPPRLPRPRPRPHAHPRP, the “shrunken log2 fold change” value is -0.0247.

On to RRIRLRPPRLPRPRPRPCGCPRP, for which the “shrunken log2 fold change” value is 0.282.

Regarding RRIRIRPPRLPRPRPRPVKKPRP, the “shrunken log2 fold change” value is -0.0235.

As for RRIRKRPPRLPRPRPRPEMYPRP, the “shrunken log2 fold change” value stood at 0.214.

Consider RRIRGRPPRLPRPRPRPVWGPRP, for which the “shrunken log2 fold change” value worked out at 1.08.

For the sequence RRIRDRPPRLPRPRPRPIEWPRP, the “shrunken log2 fold change” value stood at 0.015.

Turning to RRIRTRPPRLPRPRPRPGHVPRP, the “shrunken log2 fold change” value is -0.144.

In the case of RRIRNRPPRLPRPRPRPEGFPRP, the “shrunken log2 fold change” value is 0.0136.

The record behind these values is the supplement of paper PMC9112550, “Optimization of the antimicrobial peptide Bac7 by deep mutational scanning” (BMC Biology, 2022).
